# System: MS2 coat protein
# Test: apparent KD of MS2 coat protein; higher = weaker reporter binding
# Conditions: Eterna round: R107; input ligand: none
# In short: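 Designed RNA switches were transcribed on-chip from Illumina sequencing clusters. They were then titrated with SNAP-549-labelled MS2 coat protein (twofold steps, 0.7 or 1.5 nM to 3 µM; 0.8–1.5 h to 10–20 min per step) in 100 mM Tris-HCl pH 7.5, 80 mM KCl, 4 mM MgCl2, without or with constant ligand. Apparent KD is the per-design median of normalised cluster binding-curve fits.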
row,Sequence,apparent KD of MS2 coat protein [nM]
1,AGUAGACACGCGGCCGCCACUUGAGGAUCACCCAAGUGGUGUGUACUUGAAAACAAGUGCACAUCAAGGACCGGGCGUGUCUACA [Omei Tryp B SS D v3],7.05
2,GGAUAGGACACGGCCGCCACUAGCUAGGAUACUAGCAACAUUUCCUCACUUGAGGAACACCCAAGUAGGACCGGGUGUCCUAUCG,517
3,GGACUAACCUGAAGGAGCGACGCGCAGAAACUGCAAAUUCCUCCACACGAGGAUCACCCGUGUCAGGUAGGUCGCAGGUUAGUCG [ArgBX 28],14.6
4,AAAACAAUCUGAAGGAGCGUCACAUGAGGAUCACCCAUGUACAUGAGGAUCACCCAUGUGUGACAGGUAGGUCGCAGAAAAUACC [Exclusion Arginine B GF 3],216
5,CGCACAUGAGGAUCACCCAUGUGAGGGCGGCGAGGACCGGUACGGCCGCCACUCGCAAAACAUGAGGAUCACCCAUGUGCCGCCG [SSTA DOUBLE!!! :-D #2],32.9
6,GGACUAACCAGAAGGAGCGGCACGCAGAAACUGCAAUUUCCUCCACACGAGGAUCACCCGUGUCAGGUAGGUCGCUGGUUAGUCG [ArgBX 29],22.7
7,UGGCAAGAGGGAAGGAGCGUCAGCUGAGUCACAUGAGGAUCACCCAUGUAGCACAUGGUGUGACAGGUAGGUCGCCCUCUGCCGU [SS-ArgB11],21.5
8,GGACUAACCAGAAGGAGCGACACGCAGAAACUGCAAUUUCCUCCGCACGAGGAUCACCCGUGUCAGGUAGGUCGCUGGUUAGUCG,22.1
9,CAUUUUAGAAAACUAAAAUGAGUGGGUGAACGAGGACCGGUACGGCCGCCACUCGGACAUGAGGAUCACCCAUGUCCAUGUGAAA [AstrosExyTryA#22],14.1
10,UAACAUGAGGAUCACCCAUGUUUGAAGGAACGAGGACCGGUACGGCCGCCACUCGACGAGUGGAUGAGAAGUGGGCUUGUGUGCU [Same State Trp A GF9],15.5
11,UGGCAAGAGGGAAGGAGCGUCAGCAGAGUCACAUGAGGAUCACCCAUGUAGCACGUGGUGUGACAGGUAGGUCGCCCUCUGCCGU [SS-ArgB12],15.1
12,AAUUUUAACGGAAGGAGCGUCAAUUAAUACAAACAUGAGGAUCACCCAUGUCAAUACAUGAGACAGGUAGGUCGCCGUUAUUUGA [JR_AAArginiB_Sub024],22.1
13,UCAGGAAGAGCGGCCGCCACUGUUUGGCAUGCGGAUGAAGGAACAUGAGGAUCACCCAUGUAGAUUAGGACCGGGCUUGCGGAGA [szeemullin],13.7
14,AGCCAUGGAAACAUGGCGGCGGCAUGAGCGCGAGGACCGGUACGGCCGCCACUCGGGCAACAUGAGGAUCACCCAUGUUCCUCAU [ETA NP+V+V2 #20 +-Same Structure],101
15,GGUUGGUGUAGAGAUAUAUUGAUUACUGAAGGAGCGGGAAAUAACCCAGGUAGGUCGCAGAGAUCCACAUGAGGAUCACCCAUGU [!0.K],39.7
16,GUUAGAUCAAAAGAUUUAACAGUGGGUGAACGAGGACCGGUACGGCCGCCACUCGGACAUGAGGAUCACCCAUGUCCAUGUGAAA [AstrosExyTryA#16],17.2
17,"CCCAGUUAUAACAAAGGAAUUAUACUCGAAGGAGCGUCAUAGUAGGCAGGUAGGUCGCGAGACAUGAGGAUCACCCAUGUAGAGA [k,lmullin]",42.3
18,GCUGCCAUACGAAGGAGCGCUGUUGUAGUGAGGCGAACAUGAGGAUCACCCAUGUGGCAGCAGCAGGUAGGUCGCGUAUGGCAGC [EAB #13],18.6
19,UUACAUGAGGAUCACCCAUGUCAUACAGAAGGAGCGUCACAUAAGACAGGUAGGUCGCUGUUAUUUCAUACUGUUAUAUCCUCUA [JR_Nu_ExcArginiA_Sub029],40.3
20,CCUUUGUAGCGAAGGAGCGCGUGACUUAGCUCAUGUAAACAUGAGGAUCACCCAUGUGACACGCAGGUAGGUCGCGCUAUGAAGG [Arg B Ex t3],22.3
21,CUGCCAUGCAGAGAUACCAGUGAGCUCAGAACAUGAGGAUCACCCAUGUACGCCGCCGAUCACCCUUGGCAGCUCUGCAUGGCAG [%*#)(],12.4

# Same assay, conditions: Eterna round: R107; input ligand: theophylline 20 uM
row,Sequence,apparent KD of MS2 coat protein [nM]
1,ACAUGAGGAUCACCCAUGUAAUAGCGAGAAGGAGCGCGUAAGGACGCAGGUAGGUCGCUCGUGGUCCGGCCGCAAGGCCGGACCA [#1 Same State - Arginine A Attempt #10 (HarryS)],18.6
2,CAAUAAGUACCGGUCCUCAGAUCCUCAUGACGAGGACCGGUACGGCCGCCACUCGAAACAUGAGGAUCACCCAUGUAAUAAUAAC [Brourdmod02],68.4
3,GUCCUAGCGAUCGCUCGCUAGGACGCGGAUACCAGCGAGGUCCAUCGCCCUUGGCAGCCGAACAUGAGGAUCACCCAUGUCGGUA [#1 Same State - Theophylline A Attempt #18 (HarryS)],14.2
4,AGUAGACACGCGGCCGCCACUUGAGGAUCACCCAAGUGGUGUGUACUUGAAAACAAGUGCACAUCAAGGACCGGGCGUGUCUACA [Omei Tryp B SS D v3],8.01
5,GGCUGACAUGAGGAUCACCCAUGUAGUGAUACCAGUAAGAGAAUAUACCCUUGGCAGCACAGGUAACAACUCGUCUCCAAAGUAA [theeternabot_sameState_MS2_Theo_A_49],55.6
6,GGAUAGGACACGGCCGCCACUAGCUAGGAUACUAGCAACAUUUCCUCACUUGAGGAACACCCAAGUAGGACCGGGUGUCCUAUCG,724
7,UGCUGACAAGGACAUGGAUGAUCAGCUGAUACCAGCCUGGAAACAGGCCCUUGGCAGCAGCACAUGAGGAUCACCCAUGUAAUAA [(T)'-(M)'-(T1)-(T2)-(M1)-(M2)_Design3(Mismatches)],78.1
8,AAACAUGAGGAUCACCCAUGUUCAAUAGAUACCAGUGAUACGGUGCACCCUUGGCAGCUGUUGCUGAGUGAUGGUUCCCUCGGUA [#24 SameState-TheophyllineA],32.9
9,GGACUAACCUGAAGGAGCGACGCGCAGAAACUGCAAAUUCCUCCACACGAGGAUCACCCGUGUCAGGUAGGUCGCAGGUUAGUCG [ArgBX 28],18.9
10,AUAUGAUCAUGUGAUACCAGAAAUGGUAUUCCUCGCUGGAUUACAUGAGGAUCACCCAUGUUCCCUUGGCAGCAUAUGAUCAUAU [#01 Exclusion-TheophyllineB],36.3
11,AACAUGAGGAUCACCCAUGUGUCCUCGAAACGAGGACCGGUACGGCCGCCACUCGACGUAUGUUGACGAAAAGUCAGCAUACGAA [Mat - Exclusion - Trytophan A - D12],310
12,AUUAACAUGAGGAUCACCCAUGUUCUCACACGAGGACCGGUACGGCCGCCACUCGGUUUGGUAUUGGUCACUAGGCAGUUAGGAG [theeternabot_sameState_MS2_Trp_A_12],26.7
13,AAAACAAUCUGAAGGAGCGUCACAUGAGGAUCACCCAUGUACAUGAGGAUCACCCAUGUGUGACAGGUAGGUCGCAGAAAAUACC [Exclusion Arginine B GF 3],183
14,ACGAUACGACAUGAGGAUCACCCAUGUGAUACCAGCGUGGAAACACGCCCUUGGCAGCACAAAUACUCCAAUAACGUAUCGAAAA [MAT - Exclusion Theophlline A - Mod of Eli - D8],211
15,CGCACAUGAGGAUCACCCAUGUGAGGGCGGCGAGGACCGGUACGGCCGCCACUCGCAAAACAUGAGGAUCACCCAUGUGCCGCCG [SSTA DOUBLE!!! :-D #2],92.3
16,GGACUAACCAGAAGGAGCGGCACGCAGAAACUGCAAUUUCCUCCACACGAGGAUCACCCGUGUCAGGUAGGUCGCUGGUUAGUCG [ArgBX 29],21.8
17,UGGCAAGAGGGAAGGAGCGUCAGCUGAGUCACAUGAGGAUCACCCAUGUAGCACAUGGUGUGACAGGUAGGUCGCCCUCUGCCGU [SS-ArgB11],36.6
18,GGACUAACCAGAAGGAGCGACACGCAGAAACUGCAAUUUCCUCCGCACGAGGAUCACCCGUGUCAGGUAGGUCGCUGGUUAGUCG,35.1
19,CAUUUUAGAAAACUAAAAUGAGUGGGUGAACGAGGACCGGUACGGCCGCCACUCGGACAUGAGGAUCACCCAUGUCCAUGUGAAA [AstrosExyTryA#22],15

# Reference: the supplement of paper PMC9170038
